# From patent US20160264674A1 (ADURO BIOTECH HOLDINGS EUROPE B V, published 2016)
# T1: FLAG-tagged human APRIL (human, UniProt O75888 105-250, limits assumed)
# T1 construct: also called FLAG-tagged APRIL; FLAG-APRIL; not shown: FLAG tag
# T1 sequence (looked up): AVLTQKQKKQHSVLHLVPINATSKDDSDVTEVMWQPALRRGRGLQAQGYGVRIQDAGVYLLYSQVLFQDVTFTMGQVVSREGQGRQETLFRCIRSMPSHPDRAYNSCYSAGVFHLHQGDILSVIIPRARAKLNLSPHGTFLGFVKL
# B1: VH14_1C.VL15 (antibody, human IgG4, V domains shown)
# VH: QVQLVQSGAEVKKPGASVKVSCKASGYTFTSYVMHWVRQAPGQGLEWMGYINPYNDAPKYNEKFKGRVTITSDTSASTAYMELSSLRSDDTAVYYCARGLGYALYYAMDYWGQGTTVTVSS
# VL: DIVMTQSPSTLSASVGDRVTITCKASQNVGNNVAWYQQKPGKAPKLLISSASNRDSGVPSRFSGSGSGTEFTLTISSLQPDDFATYFCQQYNIYPFTFGQGTKLEIK
# notes: VH14_1 with M70I; Rest is human IgG4 (S241P, Kabat) and human kappa; also called 14_1C.15
# B2: VH14_1D.VL15 (antibody, human IgG4, V domains shown)
# VH: QVQLVQSGAEVKKPGASVKVSCKASGYTFTSYVMHWVRQAPGQGLEWMGYINPYNDAPKYNEKFKGRVTMTSDKSASTAYMELSSLRSDDTAVYYCARGLGYALYYAMDYWGQGTTVTVSS
# VL: DIVMTQSPSTLSASVGDRVTITCKASQNVGNNVAWYQQKPGKAPKLLISSASNRDSGVPSRFSGSGSGTEFTLTISSLQPDDFATYFCQQYNIYPFTFGQGTKLEIK
# notes: VH14_1 with T74K; Rest is human IgG4 (S241P, Kabat) and human kappa; also called 14_1D.15
# B3: VH14_1E.VL15 (antibody, human IgG4, V domains shown)
# VH: EVQLVQSGAEVKKPGASVKVSCKASGYTFTSYVMHWVRQAPGQGLEWMGYINPYNDAPKYNEKFKGRVTMTSDTSASTAYMELSSLRSDDTAVYYCARGLGYALYYAMDYWGQGTTVTVSS
# VL: DIVMTQSPSTLSASVGDRVTITCKASQNVGNNVAWYQQKPGKAPKLLISSASNRDSGVPSRFSGSGSGTEFTLTISSLQPDDFATYFCQQYNIYPFTFGQGTKLEIK
# notes: VH14_1 with Q1E; Rest is human IgG4 (S241P, Kabat) and human kappa; also called 14_1E.15
# B4: VH14.VL11 (combination of VH14 with VL11) (antibody, human IgG4, V domains shown)
# VH: QVQLVQSGAEVKKPGASVKVSCKASGYTFTSYVMHWVRQAPGQGLEWMGYINPYNDAPKYNEKFKGRVTMTRDTSASTAYMELSSLRSDDTAVYYCARGLGYALYYAMDYWGQGTTVTVSS
# VL: DIVMTQSQKFMPTSVGDRVSVTCKASQNVGNNVAWYQQKPGQSPKALIYSASNRDSGVPDRFTGSGSGTDFTLTITNVQSEDLAEYFCQQYNIYPFTFGAGTKLELK
# notes: Human IgG4 (S241P) / human kappa; Member of the group 'combinations of VH11-VH14 with VL10-VL14'
# B5: VH11.VL11 (combination of VH11 with VL11) (antibody, human IgG4, V domains shown)
# VH: QVQLVQSGAEVKKPGASVKVSCKASGYTFTSYVMHWVRQAPGQRLEWMGYINPYNDAPKYNEKFKGRVTITRDTSASTAYMELSSLRSEDTAVYYCARGLGYALYYAMDYWGQGTTVTVSS
# VL: DIVMTQSQKFMPTSVGDRVSVTCKASQNVGNNVAWYQQKPGQSPKALIYSASNRDSGVPDRFTGSGSGTDFTLTITNVQSEDLAEYFCQQYNIYPFTFGAGTKLELK
# notes: as for B4
# What was measured:
# FLAG-tagged human APRIL [1] = molecular target: T1, FLAG-tagged human APRIL; assay: competition ELISA: antibody premixed with FLAG-tagged APRIL, added to coated Fc-BCMA, anti-FLAG HRP
# Description: A subset of humanized antibodies described above was selected for further analyses. Again, plasmids encoding the VH and VL constructs were mixed in a 1:3 ratio (32 μg) and transiently expressed by transfection into (8*10⁶) HEK293T human embryonic kidney cells (HEK293T), using Lipofectamine 2000 transfection reagent (Invitrogen) according to the manufacturer's instructions. Supernatants were harvested (10 ml) and antibodies were purified using MabSelect Sure Protein A resin according to the manufacturer's instructions (GE Healthcare). Buffer was exchanged for PBS using Zeba desalting columns (Thermo Scientific). The concentration of purified antibodies was determined based on OD280 (Nanodrop ND-1000). The binding of the purified antibodies to APRIL was established using the above described APRIL ELISA. The blocking capability of the humanized antibodies with BCMA and TACI receptors, was tested in a competition ELISA. In these ELISAs, all incubation steps were followed by a wash step with PBST (PBS with 0.01% Tween 20). Maxisorb 96-wells plates (Nunc) were coated with 0.5 μg/ml Fc-BCMA (R&D Systems) or Fc-TACI (R&D Systems) and incubated overnight at 4° C. Next, humanized antibodies and dilutions thereof were incubated, premixed with FLAG-tagged APRIL, for 1 hour, which was followed by an incubation of 1 hour with anti-FLAG HRP-conjugate (Sigma). Immunoreactivity was visualized with 100 μl TMB Stabilized Chromagen (Invitrogen). Reactions were stopped with 100 μl 0.5 M H2504 and absorbances were measured at 450 and 620 nm. Calculated EC₅₀ and IC₅₀ representing the concentration at which 50% of the total binding signal or blocking is observed are represented in Table 5.
# The antibodies were tested for binding, blockade, and stability as described before.
# FLAG-tagged human APRIL [2] = molecular target: T1, FLAG-tagged human APRIL; assay: FLAG-APRIL ELISA after 10 min at 70 °C, antibody at 3.16 µg/ml
# FLAG-tagged human APRIL [3] = molecular target: T1, FLAG-tagged human APRIL; assay: FLAG-APRIL ELISA after 10 min at 65 °C, antibody at 3.16 µg/ml
# Description: (§1) The plasmids encoding the VH and VL constructs were mixed in a 1:3 ratio (4 μg in total) and transiently expressed by transfection into HEK293T human embryonic kidney cells (HEK293T/17, ATCC-CRL-11268), using Lipofectamine 2000 transfection reagent (Invitrogen) following the manufacturer's instructions. Cell supernatants were harvested after 5 days and tested for expression of antibody and binding to APRIL using an enzyme-linked immuno assay (ELISA). In these ELISAs, all incubation steps were followed by a wash step with PBST (PBS with 0.01% Tween 20). Maxisorb 96-wells plates (Nunc) were coated with 0.5 μg/ml anti-FLAG (Sigma) or anti-IgG4 (Jackson laboratories) and incubated overnight at 4° C. Subsequently the anti-FLAG coated 96-wells plates were incubated with FLAG-tagged human APRIL for 1 hour at room temperature. Next, supernatants and dilutions thereof were incubated for 1 hour, which was followed by an incubation of 1 hour with mouse anti-human IgG HRP-conjugate (Southern Biotechnology).
# (§2) To determine the effect of humanization on the stability of the antibodies, humanized antibodies were exposed to a range of temperatures for 10 minutes. Purified antibodies were diluted to 3.16 μg/ml and dilutions thereof in PBS. Next, these solutions were exposed to 65° C. or 70° C. and residual binding after heat treatment of the antibodies was measured using the FLAG-tagged APRIL ELISA assay as described before (see Table 6).
# (§3) In addition, the stability of the substituted humanized antibodies was improved as determined using thermostability studies as described in Example 3 (see Table 9).
# FLAG-tagged human APRIL [4] = molecular target: T1, FLAG-tagged human APRIL; assay: FLAG-APRIL ELISA after 10 min at 65 °C, antibody at 1 µg/ml
# Description: as §1, §2, §3
# FLAG-tagged human APRIL [5] = molecular target: T1, FLAG-tagged human APRIL; assay: ELISA: FLAG-tagged human APRIL captured on anti-FLAG plate, purified antibody titrated
# FLAG-tagged human APRIL [6] = molecular target: T1, FLAG-tagged human APRIL; assay: FLAG-APRIL ELISA after 10 min at 70 °C, antibody at 1 µg/ml
# FLAG-tagged human APRIL [7] = molecular target: T1, FLAG-tagged human APRIL; assay: FLAG-APRIL ELISA after 10 min at 70 °C, antibody at 0.316 µg/ml
# FLAG-tagged human APRIL [8] = molecular target: T1, FLAG-tagged human APRIL; assay: FLAG-APRIL ELISA after 10 min at 65 °C, antibody at 0.316 µg/ml
# Description: as §1, §2, §3
# FLAG-tagged human APRIL [9] = molecular target: T1, FLAG-tagged human APRIL; assay: ELISA on FLAG-tagged human APRIL captured by anti-FLAG
# Description: as §1
# Immunoreactivity was visualized with 100 μl TMB Stabilized Chromagen (Invitrogen). Reactions were stopped with 100 μl 0.5 M H2504 and absorbances were measured at 450 and 620 nm.
binder,measurement,setting,value
B1,IC50,FLAG-tagged human APRIL [1],5.26 nM
same,% residual binding after heat treatment (room temperature = 100%),FLAG-tagged human APRIL [2],99.4%
same,% residual binding after heat treatment (room temperature = 100%),FLAG-tagged human APRIL [3],86.3%
same,% residual binding after heat treatment (room temperature = 100%),FLAG-tagged human APRIL [4],44.7%
same,EC50,FLAG-tagged human APRIL [5],7.04 nM
same,% residual binding after heat treatment (room temperature = 100%),FLAG-tagged human APRIL [6],43.8%
same,% residual binding after heat treatment (room temperature = 100%),FLAG-tagged human APRIL [7],59.1%
same,% residual binding after heat treatment (room temperature = 100%),FLAG-tagged human APRIL [8],59.1%
B2,IC50,FLAG-tagged human APRIL [1],0.96 nM
same,% residual binding after heat treatment (room temperature = 100%),FLAG-tagged human APRIL [2],84.3%
same,% residual binding after heat treatment (room temperature = 100%),FLAG-tagged human APRIL [3],75.3%
same,% residual binding after heat treatment (room temperature = 100%),FLAG-tagged human APRIL [4],39.8%
same,EC50,FLAG-tagged human APRIL [5],1.95 nM
same,% residual binding after heat treatment (room temperature = 100%),FLAG-tagged human APRIL [6],32.7%
same,% residual binding after heat treatment (room temperature = 100%),FLAG-tagged human APRIL [7],45.6%
same,% residual binding after heat treatment (room temperature = 100%),FLAG-tagged human APRIL [8],49.4%
B3,IC50,FLAG-tagged human APRIL [1],1.74 nM
same,% residual binding after heat treatment (room temperature = 100%),FLAG-tagged human APRIL [2],78.8%
same,% residual binding after heat treatment (room temperature = 100%),FLAG-tagged human APRIL [3],82.3%
same,% residual binding after heat treatment (room temperature = 100%),FLAG-tagged human APRIL [4],39.7%
same,EC50,FLAG-tagged human APRIL [5],2.67 nM
same,% residual binding after heat treatment (room temperature = 100%),FLAG-tagged human APRIL [6],28%
same,% residual binding after heat treatment (room temperature = 100%),FLAG-tagged human APRIL [7],43.3%
same,% residual binding after heat treatment (room temperature = 100%),FLAG-tagged human APRIL [8],52%
B4,binding result,FLAG-tagged human APRIL [9],no binding
B5,binding result,FLAG-tagged human APRIL [9],no binding
